In paper PMC10760096:

Biological target: CH848-d949 DE3 design SOSIP Env (HIV-1)
Assay: SPR

B1: DH270 lineage intermediate I5.6 Fab (Fab, V domains shown)
VH: QVQLVQSGAEVKKPGASVKVSCKASGYTFTDYYIHWVRQAPGQGLEWMGWINPNTGRTNSAQKFQGRVTMTRDTSISTAYMELSRLRSDDTAVYYCARGGWIGLYYDSSGYPNFDYWGQGTLVTVSS
VL: QSALTQPASVSGSPGQSITISCTGTSYDVGSYNLVSWYQQHPGKAPKLMIYEVSKRPSGVSNRFSGSKSGNTASLTISGLQAEDEADYYCCSYAGSSTVVFGGGTKLTVL
Question: B1 was tested. Which fold change in association rate (ka) against unmutated CH848-d949 did it give?
Answer: 45 fold
